In the assay the target is Legionella collagen-like protein (Lcl) from L. pneumophila strain 130b, intact, residues 1-401 (Legionella pneumophila strain 130b). In words: SEC-MALS.

The results in this text go back to publication doi:10.1101/2023.12.10.570962 (bioRxiv, 2023).

As usually defined, the stoichiometry N is the number of molecules, sites or subunits per partner or assembly.

“Legionella collagen-like protein (Lcl) from L. pneumophila strain 130b, intact, residues 1-401 (natural protein)”: the stoichiometry N was 3.
